This is an account of results in publication PMC10909783.

Holding throughout (assay): BLI
For data set [1], the target named is T1, MDA5 WT (dL2) del646-663 (Mus musculus) (UniProt Q8R5F7).
T1 sequence: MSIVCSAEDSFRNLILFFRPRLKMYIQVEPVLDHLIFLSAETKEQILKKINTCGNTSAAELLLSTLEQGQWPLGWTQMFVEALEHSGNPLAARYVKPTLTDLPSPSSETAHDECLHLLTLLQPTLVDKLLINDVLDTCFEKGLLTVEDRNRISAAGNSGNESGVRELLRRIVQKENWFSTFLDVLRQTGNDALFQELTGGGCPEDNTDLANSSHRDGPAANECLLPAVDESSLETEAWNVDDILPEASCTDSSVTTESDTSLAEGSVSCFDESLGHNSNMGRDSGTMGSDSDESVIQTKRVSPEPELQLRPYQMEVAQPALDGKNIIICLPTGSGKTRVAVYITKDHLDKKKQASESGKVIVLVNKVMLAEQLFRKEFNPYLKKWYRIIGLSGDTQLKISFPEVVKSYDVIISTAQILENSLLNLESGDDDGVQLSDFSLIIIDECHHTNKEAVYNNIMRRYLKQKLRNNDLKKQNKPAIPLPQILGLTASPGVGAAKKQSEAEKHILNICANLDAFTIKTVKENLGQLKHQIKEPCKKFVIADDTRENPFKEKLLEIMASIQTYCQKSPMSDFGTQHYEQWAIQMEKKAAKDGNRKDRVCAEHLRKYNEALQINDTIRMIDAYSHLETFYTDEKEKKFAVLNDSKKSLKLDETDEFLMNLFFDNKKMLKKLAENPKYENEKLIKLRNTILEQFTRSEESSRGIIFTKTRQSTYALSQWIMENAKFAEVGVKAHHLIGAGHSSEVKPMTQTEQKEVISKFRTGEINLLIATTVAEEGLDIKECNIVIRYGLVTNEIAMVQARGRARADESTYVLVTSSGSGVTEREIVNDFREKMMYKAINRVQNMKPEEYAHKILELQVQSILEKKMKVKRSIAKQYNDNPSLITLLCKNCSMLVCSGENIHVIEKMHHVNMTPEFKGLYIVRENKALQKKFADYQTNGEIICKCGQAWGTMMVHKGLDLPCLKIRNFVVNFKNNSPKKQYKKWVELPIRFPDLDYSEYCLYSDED
The settings on record: 3'-biotin, BLI and EMSA: 20 mM Hepes pH 7.4, 0.15 M KCl, 1 mM TCEP, EMSA 15 min at 4 C with 1 uM protein and 100 ng nucleic acid, BLI with 0.1 or 1 uM protein …. In general terms: Mobility shift assays separate free from complexed probe on a gel.

For a further data set, the system named is LGP2 K30G (Mus musculus). The settings on record: no ATP stated; 3'-biotin; BLI and EMSA: 20 mM Hepes pH 7.4, 0.15 M KCl, 1 mM TCEP; EMSA 15 min at 4 C with 1 uM protein and 100 ng nucleic acid; BLI with 0.1 or 1 uM protein ….
The next data set deals with LGP2 WT (Mus musculus). The settings on record: 3'-biotin, BLI and EMSA: 20 mM Hepes pH 7.4, 0.15 M KCl, 1 mM TCEP, EMSA 15 min at 4 C with 1 uM protein and 100 ng nucleic acid, BLI with 0.1 or 1 uM protein ….
Data set [2] deals with MDA5 WT (dL2);LGP2 WT del646-663 (Mus musculus;Mus musculus) (UniProt Q8R5F7). The settings on record: MDA5-LGP2 mixture, apparent Kd; 3'-biotin; BLI and EMSA: 20 mM Hepes pH 7.4, 0.15 M KCl, 1 mM TCEP; EMSA 15 min at 4 C with 1 uM protein and 100 ng nucleic …; BLI with 0.1 or 1 uM protein, temperature.
For data set [3], the target named is MDA5 WT (dL2);LGP2 K30G del646-663 (Mus musculus;Mus musculus) (UniProt Q8R5F7). The settings on record: MDA5-LGP2 K30G mixture; 3'-biotin; BLI and EMSA: 20 mM Hepes pH 7.4, 0.15 M KCl, 1 mM TCEP; EMSA 15 min at 4 C with 1 uM protein and 100 ng nucleic acid; BLI with 0.1 or 1 uM protein ….

300-bp dsRNA, 3'-biotin: the Kd in data set [1] is 1310 nM.
In the case of 1-kb dsRNA, 3'-biotin, the Kd in the data set on LGP2 K30G (Mus musculus) worked out at 1300 nM; with LGP2 WT (Mus musculus), 48 nM; in the data set with LGP2 WT (Mus musculus) (no ATP stated) it was 70 nM; in data set [1] (no ATP stated), 1300 nM; in data set [2], 520 nM.
In the case of 40-nt ssRNA, 3'-biotin, the Kd in data set [1] was 2600 nM; in data set [3], 1840 nM.
